B1: Segment polarity protein dishevelled homolog DVL-2 (Homo sapiens), O14641 (parent)
chain: MAGSSTGGGGVGETKVIYHLDEEETPYLVKIPVPAERITLGDFKSVLQRPAGAKYFFKSMDQDFGVVKEEISDDNARLPCFNGRVVSWLVSSDNPQPEMAPPVHEPRAELAPPAPPLPPLPPERTSGIGDSRPPSFHPNVSSSHENLEPETETESVVSLRRERPRRRDSSEHGAGGHRTGGPSRLERHLAGYESSSTLMTSELESTSLGDSDEEDTMSRFSSSTEQSSASRLLKRHRRRRKQRPPRLERTSSFSSVTDSTMSLNIITVTLNMEKYNFLGISIVGQSNERGDGGIYIGSIMKGGAVAADGRIEPGDMLLQVNDMNFENMSNDDAVRVLRDIVHKPGPIVLTVAKCWDPSPQAYFTLPRNEPIQPIDPAAWVSHSAALTGTFPAYPGSSSMSTITSGSSLPDGCEGRGLSVHTDMASVTKAMAAPESGLEVRDRMWLKITIPNAFLGSDVVDWLYHHVEGFPERREARKYASGLLKAGLIRHTVNKITFSEQCYYVFGDLSGGCESYLVNLSLNDNDGSSGASDQDTLAPLPGATPWPLLPTFSYQYPAPHPYSPQPPPYHELSSYTYGGGSASSQHSEGSRSSGSTRSDGGAGRTGRPEERAPESKSGSGSESEPSSRGGSLRRGGEASGTSDGGPPPSRGSTGGAPNLRAHPGLHPYGPPPGMALPYNPMMVVMMPPPPPPVPPAVQPPGAPPVRDLGSVPPELTASRQSFHMAMGNPSEFFVDVM
B2: SKA complex subunit 1 (Homo sapiens), Q96BD8 (parent)
chain: MASSDLEQLCSHVNEKIGNIKKTLSLRNCGQEPTLKTVLNKIGDEIIVINELLNKLELEIQYQEQTNNSLKELCESLEEDYKDIEHLKENVPSHLPQVTVTQSCVKGSDLDPEEPIKVEEPEPVKKPPKEQRSIKEMPFITCDEFNGVPSYMKSRLTYNQINDVIKEINKAVISKYKILHQPKKSMNSVTRNLYHRFIDEETKDTKGRYFIVEADIKEFTTLKADKKFHVLLNILRHCRRLSEVRGGGLTRYVIT
partner: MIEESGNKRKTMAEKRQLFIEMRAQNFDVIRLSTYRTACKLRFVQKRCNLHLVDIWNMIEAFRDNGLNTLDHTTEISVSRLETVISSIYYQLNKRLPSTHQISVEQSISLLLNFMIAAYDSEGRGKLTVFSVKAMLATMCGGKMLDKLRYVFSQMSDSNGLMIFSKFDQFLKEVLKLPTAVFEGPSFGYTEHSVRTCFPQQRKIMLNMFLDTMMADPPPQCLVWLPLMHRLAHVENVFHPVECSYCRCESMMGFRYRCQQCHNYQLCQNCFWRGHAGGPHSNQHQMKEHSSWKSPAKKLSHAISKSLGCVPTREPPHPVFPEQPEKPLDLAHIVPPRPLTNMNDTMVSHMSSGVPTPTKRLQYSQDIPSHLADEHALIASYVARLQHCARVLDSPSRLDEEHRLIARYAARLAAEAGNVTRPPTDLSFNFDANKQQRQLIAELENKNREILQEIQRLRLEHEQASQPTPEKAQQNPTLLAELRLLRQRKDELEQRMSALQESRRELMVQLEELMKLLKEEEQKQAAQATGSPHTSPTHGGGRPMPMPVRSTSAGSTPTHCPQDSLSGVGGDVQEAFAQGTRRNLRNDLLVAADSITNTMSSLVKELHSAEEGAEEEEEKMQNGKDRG
B3: NIF3-like protein 1 (Homo sapiens), Q9GZT8 (parent)
chain: MLSSCVRPVPTTVRFVDSLICNSSRSFMDLKALLSSLNDFASLSFAESWDNVGLLVEPSPPHTVNTLFLTNDLTEEVMEEVLQKKADLILSYHPPIFRPMKRITWNTWKERLVIRALENRVGIYSPHTAYDAAPQGVNNWLAKGLGACTSRPIHPSKAPNYPTEGNHRVEFNVNYTQDLDKVMSAVKGIDGVSVTSFSARTGNEEQTRINLNCTQKALMQVVDFLSRNKQLYQKTEILSLEKPLLLHTGMGRLCTLDESVSLATMIDRIKRHLKLSHIRLALGVGRTLESQVKVVALCAGSGSSVLQGVEADLYLTGEMSHHDTLDAASQGINVILCEHSNTERGFLSDLRDMLDSHLENKINIILSETDRDPLQVV
partner: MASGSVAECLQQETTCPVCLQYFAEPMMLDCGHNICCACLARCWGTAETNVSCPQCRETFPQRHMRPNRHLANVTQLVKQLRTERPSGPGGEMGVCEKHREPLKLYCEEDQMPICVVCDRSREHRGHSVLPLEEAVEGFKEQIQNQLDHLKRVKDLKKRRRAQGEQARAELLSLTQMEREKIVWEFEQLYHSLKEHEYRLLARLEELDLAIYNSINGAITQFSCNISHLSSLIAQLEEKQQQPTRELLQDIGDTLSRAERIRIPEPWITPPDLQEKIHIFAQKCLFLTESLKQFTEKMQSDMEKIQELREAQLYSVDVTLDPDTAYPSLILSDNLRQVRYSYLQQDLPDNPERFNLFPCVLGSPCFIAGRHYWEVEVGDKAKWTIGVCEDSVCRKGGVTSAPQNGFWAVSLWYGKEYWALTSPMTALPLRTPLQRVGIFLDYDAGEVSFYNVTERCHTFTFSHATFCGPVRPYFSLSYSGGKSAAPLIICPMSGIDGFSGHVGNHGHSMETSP
B4: Protein FAM9B (Homo sapiens), Q8IZU0 (parent)
chain: MAAWGKKHAGKDPVRDECEERNRFTETREEDVTDEHGEREPFAETDEHTGANTKKPEDTAEDLTAKRKRMKMDKTCSKTKNKSKHALRKKQLKRQKRDYIHSLKLLNVLEEYITDEQKEEEEEEGEEEELIRIFQEQQKKWQQYRSVRRERLKEMKLLRDQFVKALEDFEDLCDRVFSDEDSELDN
partner: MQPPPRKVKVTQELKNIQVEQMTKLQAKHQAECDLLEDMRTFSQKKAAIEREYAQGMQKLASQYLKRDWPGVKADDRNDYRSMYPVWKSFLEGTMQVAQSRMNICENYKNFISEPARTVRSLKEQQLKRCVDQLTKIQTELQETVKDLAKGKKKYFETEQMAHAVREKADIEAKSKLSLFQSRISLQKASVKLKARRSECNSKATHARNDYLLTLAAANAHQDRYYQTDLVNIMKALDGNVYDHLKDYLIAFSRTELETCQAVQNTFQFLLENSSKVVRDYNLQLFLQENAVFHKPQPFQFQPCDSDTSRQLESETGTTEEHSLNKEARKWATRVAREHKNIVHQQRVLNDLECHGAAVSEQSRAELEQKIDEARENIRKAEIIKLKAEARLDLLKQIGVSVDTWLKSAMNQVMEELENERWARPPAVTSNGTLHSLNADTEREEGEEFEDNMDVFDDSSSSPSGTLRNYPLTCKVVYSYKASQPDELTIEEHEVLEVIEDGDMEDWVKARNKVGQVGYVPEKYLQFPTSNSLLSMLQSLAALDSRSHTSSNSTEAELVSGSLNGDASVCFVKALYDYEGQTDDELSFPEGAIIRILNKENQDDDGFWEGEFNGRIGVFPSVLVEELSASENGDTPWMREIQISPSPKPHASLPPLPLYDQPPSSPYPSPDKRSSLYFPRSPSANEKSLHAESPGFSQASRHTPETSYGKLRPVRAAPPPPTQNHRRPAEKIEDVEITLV
B5: Syntenin-2 (Homo sapiens), Q9H190 (parent)
chain: MSSLYPSLEDLKVDQAIQAQVRASPKMPALPVQATAISPPPVLYPNLAELENYMGLSLSSQEVQESLLQIPEGDSTAVSGPGPGQMVAPVTGYSLGVRRAEIKPGVREIHLCKDERGKTGLRLRKVDQGLFVQLVQANTPASLVGLRFGDQLLQIDGRDCAGWSSHKAHQVVKKASGDKIVVVVRDRPFQRTVTMHKDSMGHVGFVIKKGKIVSLVKGSSAARNGLLTNHYVCEVDGQNVIGLKDKKIMEILATAGNVVTLTIIPSVIYEHMVKKLPPVLLHHTMDHSIPDA
partner: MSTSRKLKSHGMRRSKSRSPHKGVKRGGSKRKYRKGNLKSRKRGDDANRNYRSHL
B6: Centrosomal protein POC5 (Homo sapiens), Q8NA72 (parent)
chain: MSSDEEKYSLPVVQNDSSRGSSVSSNLQEEYEELLHYAIVTPNIEPCASQSSHPKGELVPDVRISTIHDILHSQGNNSEVRETAIEVGKGCDFHISSHSKTDESSPVLSPRKPSHPVMDFFSSHLLADSSSPATNSSHTDAHEILVSDFLVSDENLQKMENVLDLWSSGLKTNIISELSKWRLNFIDWHRMEMRKEKEKHAAHLKQLCNQINELKELQKTFEISIGRKDEVISSLSHAIGKQKEKIELMRTFFHWRIGHVRARQDVYEGKLADQYYQRTLLKKVWKVWRSVVQKQWKDVVERACQARAEEVCIQISNDYEAKVAMLSGALENAKAEIQRMQHEKEHFEDSMKKAFMRGVCALNLEAMTIFQNRNDAGIDSTNNKKEEYGPGVQGKEHSAHLDPSAPPMPLPVTSPLLPSPPAAVGGASATAVPSAASMTSTRAASASSVHVPVSALGAGSAATAASEEMYVPRVVTSAQQKAGRTITARITGRCDFASKNRISSSLAIMGVSPPMSSVVVEKHHPVTVQTIPQATAAKYPRTIHPESSTSASRSLGTRSAHTQSLTSVHSIKVVD
partner: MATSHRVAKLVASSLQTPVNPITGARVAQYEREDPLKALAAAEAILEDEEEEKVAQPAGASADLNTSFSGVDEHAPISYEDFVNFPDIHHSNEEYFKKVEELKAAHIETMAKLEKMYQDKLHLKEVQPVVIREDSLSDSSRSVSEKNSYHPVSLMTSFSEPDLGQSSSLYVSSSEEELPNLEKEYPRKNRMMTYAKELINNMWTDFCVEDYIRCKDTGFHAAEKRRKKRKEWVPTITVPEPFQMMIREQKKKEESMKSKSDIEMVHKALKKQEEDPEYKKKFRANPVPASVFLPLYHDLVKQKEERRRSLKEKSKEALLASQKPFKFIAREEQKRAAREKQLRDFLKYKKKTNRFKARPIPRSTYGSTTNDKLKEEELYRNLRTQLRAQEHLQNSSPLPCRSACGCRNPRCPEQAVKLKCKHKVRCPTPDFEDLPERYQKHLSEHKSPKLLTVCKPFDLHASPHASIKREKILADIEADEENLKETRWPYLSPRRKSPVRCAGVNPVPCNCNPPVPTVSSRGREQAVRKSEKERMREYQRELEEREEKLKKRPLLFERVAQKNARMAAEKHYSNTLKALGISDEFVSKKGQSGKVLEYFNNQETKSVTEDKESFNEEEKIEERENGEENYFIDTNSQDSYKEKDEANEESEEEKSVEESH

Variants of: B1
Settings: with thap1_human THAP1, Q9NVV9
thap1_human THAP1, Q9NVV9, sequence (Q9NVV9 whole entry): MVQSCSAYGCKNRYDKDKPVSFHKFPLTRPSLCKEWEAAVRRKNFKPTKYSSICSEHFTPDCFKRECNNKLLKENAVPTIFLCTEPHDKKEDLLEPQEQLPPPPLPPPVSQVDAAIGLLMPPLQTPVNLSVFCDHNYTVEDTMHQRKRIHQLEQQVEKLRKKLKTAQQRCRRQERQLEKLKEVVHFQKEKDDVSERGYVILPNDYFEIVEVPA

Row | effect of a mutation on the interaction | Variant
1 | with no effect | A53V

Variants of: B1
Settings: with kc1e_human CSNK1E

Row | effect of a mutation on the interaction | Variant
2 | with no effect | A53V

Variants of: B1
Settings: with traf2_human TRAF2, Q12933
traf2_human TRAF2, Q12933, sequence (Q12933 whole entry): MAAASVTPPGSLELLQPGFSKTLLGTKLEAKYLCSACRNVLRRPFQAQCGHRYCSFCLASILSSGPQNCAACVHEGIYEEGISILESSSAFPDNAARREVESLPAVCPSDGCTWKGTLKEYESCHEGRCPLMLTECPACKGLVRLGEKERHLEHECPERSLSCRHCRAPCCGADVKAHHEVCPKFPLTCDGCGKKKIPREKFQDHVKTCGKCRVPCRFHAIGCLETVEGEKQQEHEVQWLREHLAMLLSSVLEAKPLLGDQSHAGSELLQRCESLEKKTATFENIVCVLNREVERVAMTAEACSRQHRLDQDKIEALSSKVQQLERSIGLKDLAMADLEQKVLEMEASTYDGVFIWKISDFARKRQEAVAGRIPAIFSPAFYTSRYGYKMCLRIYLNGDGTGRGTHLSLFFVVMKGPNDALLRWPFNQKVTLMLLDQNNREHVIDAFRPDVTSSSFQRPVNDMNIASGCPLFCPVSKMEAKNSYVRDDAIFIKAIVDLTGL

Row | effect of a mutation on the interaction | Variant
3 | with no effect | R415Q

Variants of: B1
Settings: with ap2m1_human AP2M1, Q96CW1
ap2m1_human AP2M1, Q96CW1, sequence (Q96CW1 whole entry): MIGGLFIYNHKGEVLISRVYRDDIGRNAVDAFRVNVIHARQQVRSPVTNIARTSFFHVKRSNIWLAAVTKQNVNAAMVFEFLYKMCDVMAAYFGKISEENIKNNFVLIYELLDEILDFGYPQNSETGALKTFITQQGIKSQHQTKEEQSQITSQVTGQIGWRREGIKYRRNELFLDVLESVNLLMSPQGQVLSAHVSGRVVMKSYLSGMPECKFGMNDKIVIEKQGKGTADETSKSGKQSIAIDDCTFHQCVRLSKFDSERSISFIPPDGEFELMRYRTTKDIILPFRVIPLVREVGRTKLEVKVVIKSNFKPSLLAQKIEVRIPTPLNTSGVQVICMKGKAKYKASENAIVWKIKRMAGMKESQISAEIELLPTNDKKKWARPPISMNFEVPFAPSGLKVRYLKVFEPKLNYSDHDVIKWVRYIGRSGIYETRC

Row | effect of a mutation on the interaction | Variant
4 | with no effect | R415Q

Variants of: B2
Settings: with dtnb_human DTNB

Row | effect of a mutation on the interaction | Variant
5 | with no effect | V91I

Variants of: B3
Settings: with tri27_human TRIM27, P14373

Row | effect of a mutation on the interaction | Variant
6 | disrupting interaction strength | T324I

Variants of: B4
Settings: with fcsd2_human FCHSD2, O94868

Row | effect of a mutation on the interaction | Variant
7 | with no effect | R23H

Variants of: B5
Settings: with stp1_human TNP1, P09430

Row | effect of a mutation on the interaction | Variant
8 | disrupting interaction strength | G225R
9 | disrupting interaction strength | V182M
10 | disrupting interaction strength | G242R

Variants of: B6
Settings: with FAM161A

Row | effect of a mutation on the interaction | Variant
11 | with no effect | I175M
12 | with no effect | H36R
